Test results published in IntAct's records for PubMed 17875927.

B1: CBL-interacting serine/threonine-protein kinase 24 (Arabidopsis thaliana (Mouse-ear cress)), Q9LDI3 (parent)
chain: MTKKMRRVGKYEVGRTIGEGTFAKVKFARNTDTGDNVAIKIMAKSTILKNRMVDQIKREISIMKIVRHPNIVRLYEVLASPSKIYIVLEFVTGGELFDRIVHKGRLEESESRKYFQQLVDAVAHCHCKGVYHRDLKPENLLLDTNGNLKVSDFGLSALPQEGVELLRTTCGTPNYVAPEVLSGQGYDGSAADIWSCGVILFVILAGYLPFSETDLPGLYRKINAAEFSCPPWFSAEVKFLIHRILDPNPKTRIQIQGIKKDPWFRLNYVPIRAREEEEVNLDDIRAVFDGIEGSYVAENVERNDEGPLMMNAFEMITLSQGLNLSALFDRRQDFVKRQTRFVSRREPSEIIANIEAVANSMGFKSHTRNFKTRLEGLSSIKAGQLAVVIEIYEVAPSLFMVDVRKAAGETLEYHKFYKKLCSKLENIIWRATEGIPKSEILRTITF

Variants of: B1
Conditions: with vatb1_arath VHA-B1, P11574
Sequence of vatb1_arath VHA-B1, P11574 (P11574 whole entry): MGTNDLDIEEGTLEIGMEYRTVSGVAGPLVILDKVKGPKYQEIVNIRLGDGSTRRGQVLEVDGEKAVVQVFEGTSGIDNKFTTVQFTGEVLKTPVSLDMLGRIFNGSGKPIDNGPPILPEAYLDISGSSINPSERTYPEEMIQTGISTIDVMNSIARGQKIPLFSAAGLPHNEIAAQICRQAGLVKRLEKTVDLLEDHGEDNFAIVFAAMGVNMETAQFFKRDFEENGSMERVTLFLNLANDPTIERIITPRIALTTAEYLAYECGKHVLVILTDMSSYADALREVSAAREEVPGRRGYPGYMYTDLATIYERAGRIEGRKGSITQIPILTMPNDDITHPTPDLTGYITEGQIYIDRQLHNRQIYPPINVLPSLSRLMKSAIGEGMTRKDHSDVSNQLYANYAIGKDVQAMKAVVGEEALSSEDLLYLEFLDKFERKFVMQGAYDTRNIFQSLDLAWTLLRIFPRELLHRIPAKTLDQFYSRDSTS

Row | effect of a mutation on the interaction | Variant
1 | decreasing interaction | MTKKMRRVGKYEVGRTIGEGTFAKVKFARNTDTGDNVAINIMAKSTILKNRMVDQIKREISIMKIVRHPNIVRLYEVLASPSKIYIVLEFVTGGELFDRIVHKGRLEESESRKYFQQLVDAVAHCHCKGVYHRDLKPENLLLDTNGNLKVSDFGLSALPQEGVELLRTTCGTPNYVAPEVLSGQGYDGSAADIWSCGVILFVILAGYLPFSETDLPGLYRKINAAEFSCPPWFSAEVKFLIHRILDPNPKTRIQIQGIKKDPWFRLNYVPIRAREEEEVNLDDIRAVFDGIEGSYVAENVERNDEGPLMMNAFEMITLSQGLNLSALFDRRQDFVKRQTRFVSRREPSEIIANIEAVANSMGFKSHTRNFKTRLEGLSSIKAGQLAVVIEIYEVAPSLFMVDVRKAAGETLEYHKFYKKLCSKLENIIWRATEGIPKSEILRTITF [K40N]

Variants of: B1
Conditions: with vatb2_arath VHA-B2, Q9SZN1
Sequence of vatb2_arath VHA-B2, Q9SZN1 (Q9SZN1 whole entry): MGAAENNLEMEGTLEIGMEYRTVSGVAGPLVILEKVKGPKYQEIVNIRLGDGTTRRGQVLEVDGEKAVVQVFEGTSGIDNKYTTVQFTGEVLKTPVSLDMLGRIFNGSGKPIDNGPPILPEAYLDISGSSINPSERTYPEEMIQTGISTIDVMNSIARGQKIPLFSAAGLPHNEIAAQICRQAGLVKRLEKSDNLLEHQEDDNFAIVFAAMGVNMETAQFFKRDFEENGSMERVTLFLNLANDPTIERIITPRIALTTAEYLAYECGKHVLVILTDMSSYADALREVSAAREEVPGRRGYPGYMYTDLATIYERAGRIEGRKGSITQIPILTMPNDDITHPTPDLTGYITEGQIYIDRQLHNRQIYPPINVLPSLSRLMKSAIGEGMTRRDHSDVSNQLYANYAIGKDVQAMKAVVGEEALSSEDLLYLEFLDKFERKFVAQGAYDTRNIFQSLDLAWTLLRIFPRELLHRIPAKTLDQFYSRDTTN

Row | effect of a mutation on the interaction | Variant
2 | decreasing interaction | MTKKMRRVGKYEVGRTIGEGTFAKVKFARNTDTGDNVAINIMAKSTILKNRMVDQIKREISIMKIVRHPNIVRLYEVLASPSKIYIVLEFVTGGELFDRIVHKGRLEESESRKYFQQLVDAVAHCHCKGVYHRDLKPENLLLDTNGNLKVSDFGLSALPQEGVELLRTTCGTPNYVAPEVLSGQGYDGSAADIWSCGVILFVILAGYLPFSETDLPGLYRKINAAEFSCPPWFSAEVKFLIHRILDPNPKTRIQIQGIKKDPWFRLNYVPIRAREEEEVNLDDIRAVFDGIEGSYVAENVERNDEGPLMMNAFEMITLSQGLNLSALFDRRQDFVKRQTRFVSRREPSEIIANIEAVANSMGFKSHTRNFKTRLEGLSSIKAGQLAVVIEIYEVAPSLFMVDVRKAAGETLEYHKFYKKLCSKLENIIWRATEGIPKSEILRTITF [K40N]
